The series is described as follows: soluble on expression in E. coli; label from the status in PepcDB or PDB records.
As for “MATYYSNDFRAGLKIMLDGEPYAVEASEFVKPGKGQAFARVKLRRLLTGTRVEKTFKSTDSAEGADVVDMNLTYLYNDGEFWHFMNNETFEQLSADAKAIGDNAKWLLDQAECIVTLWNGQPISVTPPNFVELEIVDTDPGLKGDTAGTGGKPATLSTGAVVKVPLFVQIGEVIKVDTRSGEYVSRVK”, the “soluble on expression in E. coli” value was “soluble”. The result for “MTARIYKPAKNAMQSGTAKTREWQLDYEPETPRTIEPLMGWTSSSDMQQQVSLRFHTRDEAVAYCEREGIPYQLIEPKEPVRRRAAYADNFAFRRPEPWTHLEHHHHHH” reads “not soluble”; that for “MGSDKIHHHHHHMQTFLKGKRVGYWLSEKKIKKLNFQAFAELCRKRGMEVVQLNLSRPIEEQGPLDVIIHKLTDVILEADQNDSQSLELVHRFQEYIDAHPETIVLDPLPAIRTLLDRSKSYELIRKIEAYMEDDRICSPPFMELTSLCGDDTMRLLEKNGLTFPFICKTRVAHGTNSHEMAIVFNQEGLNAIQPPCVVQNFINHNAVLYKVFVVGESYTVVQRPSLKNFSAGTSDRESIFFNSHNVSKPESSSVLTELDKIEGVFERPSDEVIRELSRALRQALGVSLFGIDIIINNQTGQHAVIDINAFPGYEGVSEFFTDLLNHIATVLQGQSTAMAATGDVAL”, “soluble”; that for “ERYGALAVPVGPGNLDIQTTFLVDLQSTVVCCTASMGLLLAEEVQRRNLRDKIAVRKVILGAERSSEAILAKIRECLGAESVHDITGLTEVYGPGTGLSCGVPGADGSI”, “not soluble”. “MKFGPIAIEEAEGAVLAHSTTAGEKRFRKAHRLSAEDISVLKRAGIVQVVAAVLSPDDLGEDAAAQRIAESMRFSGIEARPAATGRVNLHAKASGIFTVDAAMIDAINAVDPAITLATLAQHAPVEKGQMVATVKIIPFAVASTLVDTVVKICAGGEILAVNAYQPVRVGVIQTVLPGIKPSVLDKTLRVTEARLARSGGRLTAERRTPHEIAPVAEAAASLARDNDLVVIFGASAMSDFADVVPAAIERAGGTVVRAGMPVDPGNLLVLGTLGGKRIIGAPGCARSPKENGFDWVLDRLVAGLDVTAKDIAGMGVGGLLMEIPTRPQPREPLPAKSRLKVGIVLLAAGRSSRMGGPNKLLALFDGKPLVRRTAERALGSKASGTIVVTGHQRERVRAALSGLDVTFADNPDFANGLSTSLKAGIAYLPEDTAGAMIVLGDMPGVVSGDLDRLIDAFRKAGGNSVVRASHQGKRGNPVLLPRALFPAIAHLEGDTGARHLVEAEGLDVVDVEIGEGASVDVDTREALEGAGGVLQDLEHHHHHH”: the “soluble on expression in E. coli” value was “not soluble”. As for “MAHHHHHHMSFSKFMKCSTQLSRRLSNFEGKGTFNKSAFYNCTREKCSIVCLRKKMNVELKKICEISKMNKRNYSSECENYEFKAETKKLLQIVAHSLYTDKEVFIRELISNSSDAIEKLRFLLQSGNIKASENITFHIKVSTDENNNLFIIEDSGVGMNKEEIIDNLGTIAKSGSLNFLKKLKEQKESINRNNNINKNEIDNKINNNNNMDVPIEGNEKSQEGDIIGQFGVGFYSSFVVSNKVEVFTRSYDNNSSKGYHWVSYGNGTFTLKEVDNIPKGTKIICHLKDSCKEFSNIQNVQKIVEKFSSFINFPVYVLKKKKILQTRKDIEQNELNDHTQQNELNHHNDQNDHTQQNELNHHNDQNDHTQQNELNHHNDQNDHTQQNELNHHVEHHKNVVENKNDEYEKNMDNRTSDNIKPESLSKQNDYENMNQCNNEETVLNRTKELNEEHIVEEILVNKQKPLWCKDNVTEEEHRHFFHFLNKNKSYNEDNKSYLYNMLYKTDAPLSIKSVFYIPEEAPSRLFQQSNDIEISLYCKKVLVKKNADNIIPKWLYFVKGVIDCEDMPLNISRENMQDSSLINKLSRVVVSKILKTLEREADINEEKYLKFYKNYNYNLKEGVLEDSNKNHYKNSLMNLLRFYSINQNKFISLKQYVNNFRNNQKNIYYFSANDKNVALNSPYMEPFKKQNIDVLLLLEEIDEFVLMNLQTYKDAKFVSIDTSQNEDFDEAVLNTNKNDNEKKQSIFFNDEQKKELQAYFKQVLGSK”, the “soluble on expression in E. coli” value is “not soluble”. With “MDFKSSDAIRGPRTEDHLPHTAQAAVKIVIVGGFGVGKTTMVGSVSEIRPLTTEETMTQMGIGVDDNYGSESKTATTVAMDFGRISITEQLVLYLFGTPGQERFWFLWNGLFEGALGAVVLIDTRRLEVSFDVIGRLEERGVPFVIAVNDFPDAPRYPVEDLRGALDLTEDIPIVKCDARRRASSREVLMTLMHFLHSLAVSKTSVLEHHHHHH” the entry was “not soluble”; with “MAKQTIIVMSDSHGDSLIVEEVRDRYVGKVDAVFHNGDSELRPDSPLWEGIRVVKGNMDFYAGYPERLVTELGSTKIIQTHGHLFDINFNFQKLDYWAQEEEAAICLYGHLHVPSAWLEGKILFLNPGSISQPRGTIRECLYARVEIDDSYFKVDFLTRDHEVYPGLSKEFSR”, “soluble”. As to “MSLSSAPDIILHRGLFTTLDRSNPAASAVAIADGRFVAVGHDHDVMKLAGPSTKIVDLRGRRVLPGLIDNHLHIIRGGLNFNMELRWDGVRSLATAMDMLKRQVAVTPPPQWVRVVGGFTEHQFAEKRLPTIDELNAVAPDTPVFLLHLYDRAILNGAALRAVGYAKDTPEPPGGEIMRDTKGNPTGLLLAKPNANILYATLAKGPKLPFDYQVNSTRHFMRELNRLGVTGAIDAGGGFQNYPDDYAVIQKLSDEGLLTIRLAYNLFTQKPKGEKADFLNWTKTSKYKQGDDYFRHNGAGEMLVFSAADFEDFRVARPDMPAEMEGELEEVVRVLVQNKWPWRLHATYDETISRALDVFERVNQDIPLEGLHWFFDHAETISDQSIDRIAALGGGIAVQHRMAYQGEYFVERYGAGAAEATPPVKKIIDKGVKVSAGTDATRVASYNPWVSLSWLVTGRTVGGLRITPQRNCLDRETALRMWTENVTWFSNEEGNKGRIQVGQLADLVVPDRDYFSCSEAEIADTTSLLTMVGGRIVYGAGDFSKLESVTPPPAMPDWSPVRRFGGYAAWADDTAKTKDTSLAMKAMQMCGCANSCGVHGHDHAAAWSSRLPVSDLRSFWGALGCACWAVEGHHHHHH”, the “soluble on expression in E. coli” value is recorded as “not soluble”. For the sequence “MAHHHHHHMSTKLEQENCKLLENIEVISTWSSNNDSNMESFVEPSELDIKDDNEKCLNILNDNLIYDFEKEEDEKKKKNKKNEKSSSNIDLEYDTMKKYIKCIIHNKEKEEFYSFMKYICDSDLFLTFVQLFLDLIKNKDSNLNPHDYLINFFQINIEEENNTNSIKRKNLIKENNFYKKQNEELKKQINIIQVEIMDMKKKNMCNYITNFFFKDNKQEYDASKIFQKVNLYYENIRIEPPFYFTKDTFNLFINYLSDNKRNYIYNIITDMYNIYETNHTLFITKFYKKLTNFIEFYRSFDK”, the “soluble on expression in E. coli” value is on record as “not soluble”. Consider “MRTLPILLLVIVGVVYCYPLNEDNVDLESDVAEMEGAELDRVKRASDHKLEKKLDEIMEKVEKIKDKIEENKEKREKKNKKKGNKKDEDEEEEEDKDKKKKDKKKNKDSEEEEDKKKDKKKKNDSSDESEEENKKRKNKRKN”, for which the “soluble on expression in E. coli” value is “not soluble”. The result for “MTTTMSTLPVVLVDEILARVPITSLRSLRSTCKKWEASSKTNLVGGKATARKSSHVGFILIGDKICSMKLDLNGGDDFVDTSVNQVSAFDGFAISQLFHCDGLLFCISNNHYSNYTLMVCNMYLGETRLIQNRSLFESYQNFCSYAFGYDSSKNRNHKILRNNSVSGGYEIYSLKSDSWKDLNVDLEKSIHLWRLGSVSLKGNAYFRVIKVIEEGVWEYNLLCFDFTRESFGKLLSLPFESLGDEGEGIMVISCVRDDHLAVLYQRDTLGIWISTEIEPNKVSWREFLQVDLATLDGFPDVFIAGRFIVDEEKQVVVVFGQETELDLNHGNAFIFGRDGYFTSFTVGDAPPEDFTSYVPSLVSLQIDKTGKRKARDD” reads “soluble”; that for “GPVDMTERLKVMTIFGTRPEAIKMAPLVLELQKHPEKIESIVTVTAQHRQMLDQVLSIFGITPDFDLNIMKDRQTLIDITTRGLEGLDKVMKEAKPDIVLVHGDTTTTFIASLAAFYNQIPVGHVEAGLRTWDKYSPYPEEMNRQLTGVMADLHFSPTAKSATNLQKENKDESRIFITGNTAIDALKTTVKETYSHPVLEKLGNNRLVLMTAHRRENLGEPMRNMFRAIKRLVDKHEDVQVVYPVHMNPVVRETANDILGDYGRIHLIEPLDVIDFHNVAARSYLMLTDSGGVQEEAPSLGVPVLVLRDTTERPEGIEAGTLKLAGTDEETIFSLADELLSDKEAHDKMSKASNPYGDGRASERIVEAILKHFNK”, “soluble”; that for “MIKMGRSEMKIASAELRELMKAVSEGHYETVNTILDKDPELVNQYAPPTYDSPLARVLNKKHIDYKMLDILVKHHVDFDYPINYHKETPIELACKNQDLQLFKYLVQHNAPISEQAPHFLLVNSTNIKYLTEDKIKNTCEIIKLMGGLEAVSSKCDAEGNRFGEQARKSQLINRFGGIVKYDYMQLLQSVYPIVDREVDAPTIHGSTEVLTNLLNKIRGQFSSKETYDQQNLKDSISLFFMTGGEIPPSRKVPESRFEEAGIDTPKNAL”, “not soluble”. Regarding “ASVKDTYTDRLDDWNGIIAGNQYYDSKNDQMAKLNQELEGKVADSLSSISSQADRIYLWEKFSNYKTSANLTATYRKLEEMAKQVTNPSSRYYQDETVVRTVRDSMEWMHKHVYNSEKSIVGNWWDYEIGTPRAINNTLSLMKEYFSDEEIKKYTDVIEKFVPDPEHFRKTTDNPFKALGGNLVDMGRVKVIAGLLRKDDQEISSTIRSIEQVFKLVDQGEGFYQDGSYIDHTNVAYTGAFGNVLIDGLSQLLPVIQKTKNPIDKDKMQTMYHWIDKSFAPLLVNGELMDMSRGRSISRANSEGHVAAVEVLRGIHRIADMSEGETKQRLQSLVKTIVQSDSYYDVFKNLKTYKDISLMQSLLSDAGVASVPRTSYLSAFNKMDKTAMYNAEKGFGFGLSLFSSRTLNYEHMNKENKRGWYTSDGMFYLYNGDLSHYSDGYWPTVNPYKMPGTTETDAKRADSDTGKVLPSAFVGTSKLDDANATATMDFTNWNQTLTAHKSWFMLKDKIAFLGSNIQNTSTDTAATTIDQRKLESSNPYKVYVNDKEASLTEQEKDYPETQSVFLESSDSKKNIGYFFFKKSSISMSKALQKGAWKDINEGQSDKEVENEFLTISQAHKQNGDSYGYMLIPNVDRATFNQMIKELESSLIENNETLQSVYDAKQGVWGIVKYDDSVSTISNQFQVLKRGVYTIRKEGDEYKIAYYNPETQESAPDQEVFKKLEQHHHHHH”, the “soluble on expression in E. coli” value is reported as “soluble”. “MGSDKIHHHHHHMGNPSWINVFALVDYRSSSDTLYRVEEGLIPLETFDEINSGDPVVLSSFLNAYRGEDLSLLVIWNHGDWWRGESQKQVKGVAYDFVNLDFFTIKEIKSVLRDSPVTVLGFDACLMGTFEILWELKDCARYVVVSSKEAPGNGWDYSVLRYSKDLSSLLSNIVKRYGEIYGTEYSLSVWDTSKLDEIMLWLDRVAQYMIENNLSPWEFEVERRTAGGSTTELVELGSFAKSLQNSSDVVLREYGEGLYSAIVSARVYGTPDNYTDLTIYLPQNMKNPEYWDDFVALSDFTSESSWDDLIEHWRDKN”: the “soluble on expression in E. coli” value is given as “not soluble”. The result for “MDYYYSLISPPCQSAILLAKKLGITLNLKKTNVHDPVERDALTKLNPQHTIPTLVDNGHVVWESYAIVLYLVETYAKDDTLYPKDPKVRSVVNQRLFFDIGTLYKRIIDVIHLVMKKEQPSDEQMEKLKGALDLLEQFVTERAYAAADHLTVADICLLGTVTALNWLKHDLEPFPHIRAWLERVRAEMPDYEEFSKQVADDTLAYVASRK” reads “soluble”. Regarding “MQCHVKDEVLYIGKKEFEEPIKSEWVLEMQNTEKYKTIGPTFPDGTINWQCPCMAGGSLVAHRCGNFFRELYICMKSDDTRDPSEKCPNQFVNWAACMQNMSDERREQMRKAMTVDTEELKINPK”, the “soluble on expression in E. coli” value is given as “not soluble”. The result for “MDQERARKRGITMGKQEFDGMSRISGLLTPELRATIEAVLAKLAAPGACNPDDQTPLVDDTPDADAVRRDTRSQAQRHHDGLLAGLRGLLASGELGQHRGLPVTVVVSTTLKELEAATGKGVTGGGSRVPMSDLIRMASNAHHYLALFDGAKPLALYHTKRLASPAQRIMLYAKDRGCSLEHHHHHH” reads “soluble”.

The record behind these values is the DeepSol protein solubility set.
